Measured values from paper PMC8034659.
Changes are numbered by the printed parent chain.

What was measured:
Assay in all cases: SPR
TrfA R236E = target: T1, TrfA R236E (plasmid RK2, UniProt P07676 98-382, R236E;G254D;S267L)
T1 sequence: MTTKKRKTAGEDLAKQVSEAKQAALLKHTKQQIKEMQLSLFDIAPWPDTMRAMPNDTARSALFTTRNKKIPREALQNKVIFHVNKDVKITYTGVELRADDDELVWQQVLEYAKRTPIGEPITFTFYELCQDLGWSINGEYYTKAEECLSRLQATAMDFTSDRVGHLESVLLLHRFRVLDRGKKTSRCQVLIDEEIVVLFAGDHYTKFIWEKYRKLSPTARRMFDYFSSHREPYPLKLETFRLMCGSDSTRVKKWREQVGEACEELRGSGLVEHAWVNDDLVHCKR

TrfA P168E = target: T2, TrfA P168E (plasmid RK2, UniProt P07676 98-382, P168E;G254D;S267L)
T2 sequence: T1 sequence with P71E, E139R

TrfA R169E = target: T3, TrfA R169E (plasmid RK2, UniProt P07676 98-382, R169E;G254D;S267L)
T3 sequence: T1 sequence with R72E, E139R

TrfA N234E = target: T4, TrfA N234E (plasmid RK2, UniProt P07676 98-382, N234E;G254D;S267L)
T4 sequence: T1 sequence with N137E, E139R

TrfA T105E = target: T5, TrfA T105E (plasmid RK2, UniProt P07676 98-382, T105E;G254D;S267L)
T5 sequence: T1 sequence with T8E, E139R

TrfA E361K = target: T6, TrfA E361K (plasmid RK2, UniProt P07676 98-382, G254D;S267L;E361K)
T6 sequence: T1 sequence with E139R, E264K

TrfA K165E = target: T7, TrfA K165E (plasmid RK2, UniProt P07676 98-382, K165E;G254D;S267L)
T7 sequence: T1 sequence with K68E, E139R

B1: five RK2 iterons (ItT/ItB) (dsDNA)
DNA 1: CCTGCGGTATTGACACTTGAGGGGCGCGACTACTGACAGATGAGGGGCGCGATCCTTGACACTTGAGGGGCAGAGTGATGACAGATGAGGGGCGCACCTATTGACATTTGAGGGGCTGTCCACAGGCAG
DNA 2: CTGCCTGTGGACAGCCCCTCAAATGTCAATAGGTGCGCCCCTCATCTGTCATCACTCTGCCCCTCAAGTGTCAAGGATCGCGCCCCTCATCTGTCAGTAGTCGCGCCCCTCAAGTGTCAATACCGCAGG
B1: no binding (TrfA R236E); binds (TrfA P168E); no binding (TrfA R169E). B1: no binding (TrfA N234E); binds (TrfA T105E); binds (TrfA E361K). B1: no binding (TrfA K165E).
